From patent US20240116985A1 (published 2024)
Starred links: 1 amine or outer side, 2 acyl side, 3 side chain; linkers in the order of their positions; H or OH if unused. Positions of bridges follow the written chain, without caps; N, C: chain ends. Non-standard residues stand in square brackets, D forms with d. Primed or numbered codes have the meaning given here. PyrS2(3) = (S)-3-amino-1-((pent-4-en-1-yloxy)carbonyl)pyrrolidine-3-carboxylic acid, stapling residue, C=CCCCOC(=O)N1CC[C@@](N[*:1])(C(=O)[*:2])C1; B5(6) = 2-amino-2-(pent-4-en-1-yl)hept-6-enoic acid (bis(4-pentenyl)glycine), stitching residue, C=CCCCC(CCCC=C)(N[*:1])C(=O)[*:2]; TfeGA = (S)-2-amino-3-((carboxymethyl)(2,2,2-trifluoroethyl)amino)propanoic acid, O=C([C@H](CN(CC(=O)[*:3])CC(F)(F)F)N[*:1])[*:2]; B5″ = 2,2-bis(4-pentenyl)glycine, stitching residue, C=CCCCC(CCCC=C)(N[*:1])C(=O)[*:2]; Bta = N[C@@H](Cc1csc2ccccc12)C(=O)O; αAllylPro = C=CC[C@@]1(C(=O)O)CCCN1; tBuAla = CC(C)(C)C[C@H](N)C(=O)O; 3Thi = N[C@@H](Cc1ccsc1)C(=O)O; S8 = C=CCCCCCC[C@](C)(N)C(=O)O

Key:
[1] = target: T1, B-cat-Halo (NanoBRET construct expressed in HEK293 cells) (UniProt P35222 1-781, HaloTag NanoBRET 618 Ligand bound in the assay); test: cell-based or functional assay
T1 sequence (looked up): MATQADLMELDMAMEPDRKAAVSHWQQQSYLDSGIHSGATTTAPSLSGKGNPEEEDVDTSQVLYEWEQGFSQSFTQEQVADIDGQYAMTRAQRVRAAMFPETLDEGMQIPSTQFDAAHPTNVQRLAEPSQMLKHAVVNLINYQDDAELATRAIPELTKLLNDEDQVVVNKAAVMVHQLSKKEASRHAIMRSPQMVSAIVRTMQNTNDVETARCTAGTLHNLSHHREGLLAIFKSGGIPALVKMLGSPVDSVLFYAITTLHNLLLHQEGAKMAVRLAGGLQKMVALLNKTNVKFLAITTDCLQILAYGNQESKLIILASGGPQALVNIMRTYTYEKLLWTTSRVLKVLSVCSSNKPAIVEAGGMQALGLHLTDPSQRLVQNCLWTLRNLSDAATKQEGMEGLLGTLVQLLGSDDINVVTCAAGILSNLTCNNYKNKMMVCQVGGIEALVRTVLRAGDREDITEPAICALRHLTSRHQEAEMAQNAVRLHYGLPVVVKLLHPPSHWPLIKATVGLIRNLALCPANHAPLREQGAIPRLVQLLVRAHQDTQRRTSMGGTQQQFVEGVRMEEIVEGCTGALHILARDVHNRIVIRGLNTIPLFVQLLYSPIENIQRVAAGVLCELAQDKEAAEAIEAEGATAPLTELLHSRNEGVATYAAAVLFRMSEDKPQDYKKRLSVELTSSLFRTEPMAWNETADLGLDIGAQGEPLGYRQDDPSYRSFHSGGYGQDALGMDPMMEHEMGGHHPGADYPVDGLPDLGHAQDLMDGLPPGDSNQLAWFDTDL

[2] = target: T2, beta-catenin (in DLD1 TCF/LEF luciferase reporter cells) (UniProt P35222 1-781); test: cell-based or functional assay
T2 sequence (looked up): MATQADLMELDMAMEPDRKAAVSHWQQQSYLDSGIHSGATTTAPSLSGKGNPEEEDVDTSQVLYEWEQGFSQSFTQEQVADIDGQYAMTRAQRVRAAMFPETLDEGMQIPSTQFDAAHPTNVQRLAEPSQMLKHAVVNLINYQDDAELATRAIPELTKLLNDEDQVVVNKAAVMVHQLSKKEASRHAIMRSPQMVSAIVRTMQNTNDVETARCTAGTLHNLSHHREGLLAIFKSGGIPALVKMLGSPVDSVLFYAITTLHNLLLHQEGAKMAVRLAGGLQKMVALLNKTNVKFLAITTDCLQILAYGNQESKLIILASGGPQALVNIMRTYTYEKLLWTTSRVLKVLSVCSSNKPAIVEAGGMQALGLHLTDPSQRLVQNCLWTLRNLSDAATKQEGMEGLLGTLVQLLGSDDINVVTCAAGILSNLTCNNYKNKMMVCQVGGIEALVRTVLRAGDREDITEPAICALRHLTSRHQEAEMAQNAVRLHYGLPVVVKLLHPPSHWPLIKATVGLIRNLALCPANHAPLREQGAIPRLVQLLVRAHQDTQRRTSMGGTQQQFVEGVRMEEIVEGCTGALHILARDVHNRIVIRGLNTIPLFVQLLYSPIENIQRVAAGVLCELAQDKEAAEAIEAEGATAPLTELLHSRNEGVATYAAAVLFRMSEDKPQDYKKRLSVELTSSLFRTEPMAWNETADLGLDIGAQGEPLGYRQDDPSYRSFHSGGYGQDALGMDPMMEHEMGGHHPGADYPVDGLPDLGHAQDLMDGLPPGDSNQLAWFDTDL

[3] = target: T3, B-cat-Halo (NanoBRET construct expressed in HEK293 cells) (UniProt P35222 1-781); test: cell-based or functional assay
T3 sequence (looked up): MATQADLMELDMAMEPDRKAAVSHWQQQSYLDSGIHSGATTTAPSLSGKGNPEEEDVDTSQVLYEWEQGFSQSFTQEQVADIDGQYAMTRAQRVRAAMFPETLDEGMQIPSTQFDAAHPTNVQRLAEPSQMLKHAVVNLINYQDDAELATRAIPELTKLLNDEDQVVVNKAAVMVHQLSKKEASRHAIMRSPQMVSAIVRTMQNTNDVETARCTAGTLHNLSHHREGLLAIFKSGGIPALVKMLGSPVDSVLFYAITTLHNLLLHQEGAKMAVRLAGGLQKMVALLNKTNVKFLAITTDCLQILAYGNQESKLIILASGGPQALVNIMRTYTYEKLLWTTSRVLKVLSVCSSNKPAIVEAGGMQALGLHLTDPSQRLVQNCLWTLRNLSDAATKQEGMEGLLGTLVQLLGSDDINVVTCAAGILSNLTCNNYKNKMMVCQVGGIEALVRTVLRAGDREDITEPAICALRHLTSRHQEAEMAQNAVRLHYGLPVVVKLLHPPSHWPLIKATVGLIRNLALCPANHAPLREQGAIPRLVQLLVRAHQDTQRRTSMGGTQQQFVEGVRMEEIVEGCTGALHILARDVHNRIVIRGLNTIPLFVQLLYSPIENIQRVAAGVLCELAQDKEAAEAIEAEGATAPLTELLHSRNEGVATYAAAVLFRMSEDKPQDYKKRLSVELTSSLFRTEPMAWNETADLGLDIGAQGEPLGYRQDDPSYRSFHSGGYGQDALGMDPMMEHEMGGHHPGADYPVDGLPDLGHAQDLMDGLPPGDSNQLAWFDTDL

[4] = target: T4, beta-catenin in DLD1 TCF/LEF luciferase reporter cells (UniProt P35222 1-781); test: cell-based or functional assay
T4 sequence (looked up): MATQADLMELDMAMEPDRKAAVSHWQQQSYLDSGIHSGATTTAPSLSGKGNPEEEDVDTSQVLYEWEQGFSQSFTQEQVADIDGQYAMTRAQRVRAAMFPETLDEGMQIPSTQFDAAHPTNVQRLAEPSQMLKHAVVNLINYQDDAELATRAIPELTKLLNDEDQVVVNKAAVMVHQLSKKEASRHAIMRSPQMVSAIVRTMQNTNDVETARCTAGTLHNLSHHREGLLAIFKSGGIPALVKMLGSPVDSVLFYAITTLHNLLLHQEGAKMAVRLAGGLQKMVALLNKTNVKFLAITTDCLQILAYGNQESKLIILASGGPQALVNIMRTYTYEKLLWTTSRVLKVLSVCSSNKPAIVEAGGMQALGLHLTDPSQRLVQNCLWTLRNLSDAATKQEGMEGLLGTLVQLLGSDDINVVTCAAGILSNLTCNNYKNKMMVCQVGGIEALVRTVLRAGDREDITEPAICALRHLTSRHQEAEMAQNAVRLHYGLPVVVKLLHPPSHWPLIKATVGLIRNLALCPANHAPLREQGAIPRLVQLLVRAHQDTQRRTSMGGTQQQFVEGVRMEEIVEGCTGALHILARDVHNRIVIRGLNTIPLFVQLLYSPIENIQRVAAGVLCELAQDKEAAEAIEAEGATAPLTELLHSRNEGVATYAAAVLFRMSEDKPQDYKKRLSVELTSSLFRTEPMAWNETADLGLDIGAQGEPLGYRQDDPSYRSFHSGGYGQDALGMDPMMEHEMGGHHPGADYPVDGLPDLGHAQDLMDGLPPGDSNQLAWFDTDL

[5] = target: T5, full-length beta-Catenin (Uniprot ID P35222) (Homo sapiens (Human), UniProt P35222 1-781); test: FP competition: full-length beta-catenin 10 nM + 5FAM-TCF4(10-53) 10 nM
T5 construct: also called bCat; B-Catenin
T5 sequence: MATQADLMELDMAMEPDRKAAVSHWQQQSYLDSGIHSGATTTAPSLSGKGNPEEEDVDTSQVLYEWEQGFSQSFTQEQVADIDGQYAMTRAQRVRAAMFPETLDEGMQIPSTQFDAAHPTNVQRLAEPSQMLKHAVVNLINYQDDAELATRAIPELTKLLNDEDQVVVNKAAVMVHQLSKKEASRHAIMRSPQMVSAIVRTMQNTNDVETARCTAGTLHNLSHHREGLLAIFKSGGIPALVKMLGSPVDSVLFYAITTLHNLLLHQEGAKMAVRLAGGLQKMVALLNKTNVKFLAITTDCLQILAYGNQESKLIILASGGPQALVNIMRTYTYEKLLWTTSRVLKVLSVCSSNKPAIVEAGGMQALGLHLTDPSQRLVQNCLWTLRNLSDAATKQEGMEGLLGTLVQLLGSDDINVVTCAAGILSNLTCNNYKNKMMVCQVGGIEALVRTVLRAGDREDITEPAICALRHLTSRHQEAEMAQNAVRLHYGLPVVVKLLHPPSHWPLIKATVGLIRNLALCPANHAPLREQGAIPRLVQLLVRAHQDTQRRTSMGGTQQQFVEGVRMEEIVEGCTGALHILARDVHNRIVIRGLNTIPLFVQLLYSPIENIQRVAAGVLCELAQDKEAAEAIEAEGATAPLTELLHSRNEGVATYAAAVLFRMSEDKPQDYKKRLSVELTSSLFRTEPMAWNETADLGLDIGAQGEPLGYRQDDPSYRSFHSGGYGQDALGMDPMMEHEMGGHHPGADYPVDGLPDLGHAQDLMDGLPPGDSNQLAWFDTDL
Experimental: The plate was incubated protected from light for 60 minutes at 20° C. prior to read. Reads were performed on a CLARIOstar plate reader (BMG Labtech) in duplicate, and data were fitted to a 1:1 binding model with hill slope using an in-house script. All provided concentrations are final concentrations.

| Binder | NanoBRET Abs IC50 [1] [µM] | DLD1 4% Abs IC50 [2] [µM] | NanoBRET Abs IC50 [3] [µM] | DLD1 4% Abs IC50 [4] [µM] | IC50 [5] [µM] |
| --- | --- | --- | --- | --- | --- |
| Ac-[αAllylPro]D[tBuAla][B5″]D[TfeGA]AAFN[PyrS2(3)][3Thi][Bta]Q-NH2 (staple 1-4, 4-11) [I-762] | 14 | 7.9 | – | – | – |
| Ac-[αAllylPro]DL[B5(6)]DEAAFQ[S8]F[Bta]Q-NH2 (staple 1-4, 4-11, Stapled peptide composition) [I-505] | – | – | 4.9 | 9.4 | 0.023 |
